This note sets out measurements from the RNAGym collection of RNA variant scans (doi:10.7554/elife.90254).

Sequences and labels used below:
B1: OR4K15 (parent)
chain: GUUAACGGUCAUAGGCCAUGGAAACUAGGAGCACCAUUUCGCUGCCAGUGAAGAAAUGAACAAAGAAAAUCUGGGCCAGGCAGGCAUCAAAAGAAAUAGUCUUGCGCUCAACCAGAAAGUCUGUAAUCAUUUUAAGGGUA

The series covers variants of B1. Description: self-cleavage, relative activity (ratio to wild type); higher = more cleavage; in vitro, sequencing; the parent is a self-cleaving ribozyme.
Regarding GUUAACGGUCAUAGGCCAUGGAAACUAGGAGCACCAUUUCGCUGCCAGUGAAGAAAUGAACAAAGUAAAUCUGGGCCAGGCUGGCAUCAAAAGAAAUAGUCUUGCGCUCAACCAGAAAGUCUGUAAUCAUUUUAAGGGUA [A66U A82U], the self-cleavage was determined as 0.24.

As to GUUAACGGUCAUAGGCCAUGGAAACUAGGAGCACCAUUUCGCUGCCAGUGAAGAAAUGAACAAAGUAAAUCUGGGCCAGGCGGGCAUCAAAAGAAAUAGUCUUGCGCUCAACCAGAAAGUCUGUAAUCAUUUUAAGGGUA [A66U A82G], the self-cleavage came out at 0.92. The figure for GUUAACGGUCAUAGGCCAUGGAAACUAGGAGCACCAUUUCGCUGCCAGUGAAGAAAUGAACAAAGUAAAUCUGGGCCAGGCAGGCAUCAAAAGAAAUAGUCUUGCGCUCAACCAGAAAGUCUGUAGUCAUUUUAAGGGUA [A66U A126G] is 1.05.

In the case of GUUAACGGUCAUAGGCCAUGGAAACUAGGAGCACCAUUUCGCUGCCAGUGAAGAAAUGAACAAAGUAAAUCUGGGCCGGGCAGGCAUCAAAAGAAAUAGUCUUGCGCUCAACCAGAAAGUCUGUAAUCAUUUUAAGGGUA [A66U A78G], the self-cleavage is 0.3. The figure for GUUAACGGUCAUAGGCCAUGGAAACUAGGAGCACCAUUUCGCUGCCAGUGAAGAAAUGAACAAAGGAAAUCUGGGCCAGGCAGGCAUCAAAAGAAAUAGUCUUGCGCUCAACCAGAAAGCCUGUAAUCAUUUUAAGGGUA [A66G U120C] is 1.71; for GUUAACGGUCAUAGGCCAUGGAAACUAGGAGCACCAUUUCGCUGCCAGUGAAGAAAUGAACAAAGUAAAUCUGGGCCAGGCAGGCAUCAAAAGGAAUAGUCUUGCGCUCAACCAGAAAGUCUGUAAUCAUUUUAAGGGUA [A66U A94G] it is 1.36. In the case of GUUAACGGUCAUAGGCCAUGGAAACUAGGAGCACCAUUUCGCUGCCAGUGAAGAAAUGAACAAAGUAAAUCUGGGCCAGGCAGGCAUCAAAAGAAAUAGUCUUGCGCUCAACCAGAGAGUCUGUAAUCAUUUUAAGGGUA [A66U A117G] it was 1.44; in that of GUUAACGGUCAUAGGCCAUGGAAACUAGGAGCACCAUUUCGCUGCCAGUGAAGAAAUGAACAAAGGAAAUCUGGGCCAGGCAGGCAUCAAAAGAAAUAGUCUUGCGCUCAACCAGAAAGUCUGUAAUCAUUUCAAGGGUA [A66G U133C], 1.82.

Take GUUAACGGUCAUAGGCCAUGGAAACUAGGAGCACCAUUUCGCUGCCAGUGAAGAAAUGAACAAAGUAAAUCUGGGCCAGGCAGGCAUCAAAAGAAAUAGUCUUGCGCUCAACCAGAAAGUCUGUAAUCAUUUUAAGGGUA [A66U]: the self-cleavage was 1.36. As to GUUAACGGUCAUAGGCCAUGGAAACUAGGAGCACCAUUUCGCUGCCAGUGAAGAAAUGAACAAAGUAAAUCUGGGCCAGGCAGGCAUCAAAAGAAAUAGUCUUGCGCUCAACCAGAAAGUCUGUAAUCAUUUUAGGGGUA [A66U A135G], the self-cleavage was 1.83.

Turning to GUUAACGGUCAUAGGCCAUGGAAACUAGGAGCACCAUUUCGCUGCCAGUGAAGAAAUGAACAAAGUAAAUCUGGGCCAGGCAGGCAUCAAAAGAAAUAGUCUUGCGCUCAACCAGAAAGUCUGUAAUCAUUUUAUGGGUA [A66U A135U], the self-cleavage amounted to 0.74.

Consider GUUAACGGUCAUAGGCCAUGGAAACUAGGAGCACCAUUUCGCUGCCAGUGAAGAAAUGAACAAAGUGAAUCUGGGCCAGGCAGGCAUCAAAAGAAAUAGUCUUGCGCUCAACCAGAAAGUCUGUAAUCAUUUUAAGGGUA [A66U A67G], for which the self-cleavage turned out to be 0.98.

As for GUUAACGGUCAUAGGCCAUGGAAACUAGGAGCACCAUUUCGCUGCCAGUGAAGAAAUGAACAAAGUAAAUCUGGGCCAGGCAGGCAUCGAAAGAAAUAGUCUUGCGCUCAACCAGAAAGUCUGUAAUCAUUUUAAGGGUA [A66U A89G], the self-cleavage worked out at 1.7. As for GUUAACGGUCAUAGGCCAUGGAAACUAGGAGCACCAUUUCGCUGCCAGUGAAGAAAUGAACAAAGUAAAUCUGGGCCAGGCAGGCAUCCAAAGAAAUAGUCUUGCGCUCAACCAGAAAGUCUGUAAUCAUUUUAAGGGUA [A66U A89C], the self-cleavage came to 0.99.

As for GUUAACGGUCAUAGGCCAUGGAAACUAGGAGCACCAUUUCGCUGCCAGUGAAGAAAUGAACAAAGGAAAUCUGGGCCAGGCAGGCAUCAAAAGAAAUAGUCUUGCGCUCAACCAGAAAGUCUGUAAUCAAUUUAAGGGUA [A66G U130A], the self-cleavage came to 0.6. Take GUUAACGGUCAUAGGCCAUGGAAACUAGGAGCACCAUUUCGCUGCCAGUGAAGAAAUGAACAAAGGAAAUCUGGGCCAGGCAGGCAUCAAAAGAAAUAGUCUUGCGCUCAACCAGAAAGUCUGUAAUCAUUCUAAGGGUA [A66G U132C]: the self-cleavage worked out at 0.6. Turning to GUUAACGGUCAUAGGCCAUGGAAACUAGGAGCACCAUUUCGCUGCCAGUGAAGAAAUGAACAAAGUAAAUCUGGGCCAGGCAGGCAUCAAAAGAAAUAGUCUUGCGCUCAACCAGAAAGUCUGUAAUCAUUUUAAGGGUG [A66U A140G], the self-cleavage stood at 2.51.

GUUAACGGUCAUAGGCCAUGGAAACUAGGAGCACCAUUUCGCUGCCAGUGAAGAAAUGAACAAAGGAAAUCUGGGCCAGGCAGGCAUCAAAAGAAAUAGUCUUGCGCUCAACCAGAAAGUCUGUAAUCAUAUUAAGGGUA [A66G U131A]: the self-cleavage was determined as 1.7. Turning to GUUAACGGUCAUAGGCCAUGGAAACUAGGAGCACCAUUUCGCUGCCAGUGAAGAAAUGAACAAAGUAAAUCUGGGCCAGGCAGGCAUCAAAAGAAAUAGUCUUGCGCUCAACAAGAAAGUCUGUAAUCAUUUUAAGGGUA [A66U C113A], the self-cleavage was 0. GUUAACGGUCAUAGGCCAUGGAAACUAGGAGCACCAUUUCGCUGCCAGUGAAGAAAUGAACAAAGGAAAUCUGGGCCAGGCAGGCAUCAAAAGAAAUAGUCUUGCGCUCAACCAGAAAGUCUGUAAACAUUUUAAGGGUA [A66G U127A]: the self-cleavage turned out to be 2.35.

Turning to GUUAACGGUCAUAGGCCAUGGAAACUAGGAGCACCAUUUCGCUGCCAGUGAAGAAAUGAACAAAGUAAAUCUGGGCCAGGCAGGCAUCAAAAGAAAUAGUCUUGCGCUCAGCCAGAAAGUCUGUAAUCAUUUUAAGGGUA [A66U A111G], the self-cleavage was 0.01.
